Experiments:
MSI1 RRM1 [1] = molecular target: T1, MSI1 RRM1 (Homo sapiens, UniProt O43347 1-103); assay: SPR; 1:1 with mass transport; SPR, 3'-biotinylated RNA immobilized on dextran sensor chip, protein as analyte; running buffer, salt, pH and temperature not in the material; settings: protein: recombinant, tags: N-terminal Strep-tag, label: 3'-biotin
MSI1 RRM2 [2] = molecular target: T2, MSI1 RRM2 (Homo sapiens, UniProt O43347 104-200); assay: as above; settings: protein: recombinant, tags: C-terminal Strep-tag, label: 3'-biotin
MSI1 RRM1-RRM2 tandem [3] = molecular target: T3, MSI1 RRM1-RRM2 tandem (Homo sapiens, UniProt O43347 1-200); assay: SPR; KD1 monovalent step, new model; SPR, 3'-biotinylated RNA immobilized on dextran sensor chip, protein as analyte; running buffer, salt, pH and temperature not in the material; settings: protein: recombinant, label: 3'-biotin
MSI1 RRM1-RRM2 tandem [4] = molecular target: T3, MSI1 RRM1-RRM2 tandem; assay: SPR; KD1, bivalent analyte model; SPR, 3'-biotinylated RNA immobilized on dextran sensor chip, protein as analyte; running buffer, salt, pH and temperature not in the material; settings: protein: recombinant, label: 3'-biotin
MSI1 RRM1-RRM2 tandem [5] = molecular target: T3, MSI1 RRM1-RRM2 tandem; assay: SPR; KD1, induced fit model; SPR, 3'-biotinylated RNA immobilized on dextran sensor chip, protein as analyte; running buffer, salt, pH and temperature not in the material; settings: protein: recombinant; label: 3'-biotin; linear, single UAG motif
MSI1 RRM1-RRM2 tandem [6] = molecular target: T3, MSI1 RRM1-RRM2 tandem; assay: SPR; 1:1 model (poor fit); SPR, 3'-biotinylated RNA immobilized on dextran sensor chip, protein as analyte; running buffer, salt, pH and temperature not in the material; settings: protein: recombinant; label: 3'-biotin; linear, single UAG motif
MSI1 RRM1-RRM2 tandem [7] = molecular target: T3, MSI1 RRM1-RRM2 tandem; assay: SPR; KD1, bivalent analyte model (Table 3 prints 41); SPR, 3'-biotinylated RNA immobilized on dextran sensor chip, protein as analyte; running buffer, salt, pH and temperature not in the material; settings: protein: recombinant; label: 3'-biotin; linear, single UAG motif
MSI1 RRM1-RRM2 tandem [8] = molecular target: T3, MSI1 RRM1-RRM2 tandem; assay: SPR; KD1 monovalent step, new rapid 2:1 model; SPR, 3'-biotinylated RNA immobilized on dextran sensor chip, protein as analyte; running buffer, salt, pH and temperature not in the material; settings: protein: recombinant; label: 3'-biotin; linear, single UAG motif
MSI1 RRM1-RRM2 tandem [9] = molecular target: T3, MSI1 RRM1-RRM2 tandem; assay: SPR; 7.8-250 nM; SPR, 3'-biotinylated RNA immobilized on dextran sensor chip, protein as analyte; running buffer, salt, pH and temperature not in the material; settings: protein: recombinant; label: 3'-biotin
MSI1 RRM1 [10] = molecular target: T1, MSI1 RRM1; assay: SPR; 1.9-500 nM; SPR, 3'-biotinylated RNA immobilized on dextran sensor chip, protein as analyte; running buffer, salt, pH and temperature not in the material; settings: protein: recombinant; tags: N-terminal Strep-tag; label: 3'-biotin
MSI1 RRM2 [11] = molecular target: T2, MSI1 RRM2; assay: as above; settings: protein: recombinant; tags: C-terminal Strep-tag; label: 3'-biotin

T1 sequence (O43347 1-103): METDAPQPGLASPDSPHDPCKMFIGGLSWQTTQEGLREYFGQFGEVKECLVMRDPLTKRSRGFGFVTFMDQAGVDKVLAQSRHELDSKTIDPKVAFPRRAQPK
T3 sequence (O43347 1-200): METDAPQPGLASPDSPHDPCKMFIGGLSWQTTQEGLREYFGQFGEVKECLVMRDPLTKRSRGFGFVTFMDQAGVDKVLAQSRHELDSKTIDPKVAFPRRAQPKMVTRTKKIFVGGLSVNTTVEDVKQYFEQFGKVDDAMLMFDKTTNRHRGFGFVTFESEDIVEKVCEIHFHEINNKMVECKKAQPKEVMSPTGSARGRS
T2 sequence (O43347 104-200): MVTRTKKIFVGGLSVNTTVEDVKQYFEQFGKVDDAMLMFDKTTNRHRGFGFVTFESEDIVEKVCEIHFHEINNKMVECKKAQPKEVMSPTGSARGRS

Binder: UUGUCAGUUACCCCUU (ssRNA) [RNA-L1a]
- Kd (MSI1 RRM1 [1]; linear): 151 nM
- Kd (MSI1 RRM2 [2]; linear): 123 nM
- Kd (MSI1 RRM1-RRM2 tandem [3]; linear): 1170 nM
- Kd (MSI1 RRM1-RRM2 tandem [4]; linear): 1410 nM

Binder: CACUCUGUAGUAUGUAGGGUUUAUUU (structured_RNA) [RNA-HP2b]
- Kd (MSI1 RRM1 [1]; potential hairpin): 33 nM
- Kd (MSI1 RRM2 [2]; potential hairpin): 26 nM
- Kd (MSI1 RRM1-RRM2 tandem [3]; potential hairpin): 49 nM
- Kd (MSI1 RRM1-RRM2 tandem [4]; potential hairpin): 144 nM

Binder: UUGUUAGUUACCCCUU (ssRNA) [RNA-L1]
- Kd (MSI1 RRM1-RRM2 tandem [5]): 24 nM
- Kd (MSI1 RRM1 [1]; linear, single UAG motif): 47 nM
- Kd (MSI1 RRM2 [2]; linear, single UAG motif): 25 nM
- Kd (MSI1 RRM1-RRM2 tandem [6]): 2 nM
- Kd (MSI1 RRM1-RRM2 tandem [7]): 42 nM
- Kd (MSI1 RRM1-RRM2 tandem [8]): 58 nM

Binder: CGGCGCCGC (ssRNA) [RNA C]
- binding result (MSI1 RRM1-RRM2 tandem [9]): no binding
- binding result (MSI1 RRM1 [10]): no binding
- binding result (MSI1 RRM2 [11]): no binding

Binder: AAGCGUUAGUUAUUUAGUCGCUU (structured_RNA) [RNA-HP2a]
- Kd (MSI1 RRM1 [1]; potential hairpin): 22 nM
- Kd (MSI1 RRM2 [2]; potential hairpin): 37 nM
- Kd (MSI1 RRM1-RRM2 tandem [3]; potential hairpin): 77 nM
- Kd (MSI1 RRM1-RRM2 tandem [4]; potential hairpin): 45 nM

— paper PMC11542179, “Unraveling the Bivalent and Rapid Interactions Between a Multivalent RNA Recognition Motif and RNA: A Kinetic Approach”
